Reference: paper PMC7116848 (Nature, 2019)

How the values were obtained:
Mgm1 (truncated s-Mgm1) = biological target: T1, Mgm1 (truncated s-Mgm1) (Thermochaetoides thermophila, UniProt G0SGC7); assay: isothermal titration calorimetry; assay type: binding
T1 sequence (G0SGC7 219-912): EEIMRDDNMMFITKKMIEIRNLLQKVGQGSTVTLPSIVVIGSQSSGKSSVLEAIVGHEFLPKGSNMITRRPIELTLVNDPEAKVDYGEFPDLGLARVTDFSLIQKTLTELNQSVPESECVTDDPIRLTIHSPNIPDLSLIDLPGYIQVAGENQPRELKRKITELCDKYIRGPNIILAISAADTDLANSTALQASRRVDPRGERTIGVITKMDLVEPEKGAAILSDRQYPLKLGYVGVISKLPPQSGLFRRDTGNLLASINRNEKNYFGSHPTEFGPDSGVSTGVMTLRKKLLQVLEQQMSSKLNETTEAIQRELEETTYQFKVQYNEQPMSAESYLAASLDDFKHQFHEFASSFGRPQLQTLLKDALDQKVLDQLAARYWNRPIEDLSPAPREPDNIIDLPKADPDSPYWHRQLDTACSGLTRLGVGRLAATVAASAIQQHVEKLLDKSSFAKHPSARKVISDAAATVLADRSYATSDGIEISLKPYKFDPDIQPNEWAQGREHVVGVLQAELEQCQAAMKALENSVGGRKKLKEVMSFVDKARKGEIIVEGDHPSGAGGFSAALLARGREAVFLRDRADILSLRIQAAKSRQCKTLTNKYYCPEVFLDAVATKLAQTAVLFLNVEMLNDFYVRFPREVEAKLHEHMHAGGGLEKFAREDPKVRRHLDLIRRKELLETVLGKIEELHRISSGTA

AUC = biological target: the molecule itself; assay: AUC
crystal structure = biological target: the molecule itself; assay: crystal structure

## Nc1nc2c(ncn2[C@@H]2O[C@H](COP(=O)(O)OP(=O)(O)OP(O)(O)=S)[C@@H](O)[C@H]2O)c(=O)[nH]1 [GTPγS]
Mgm1 (truncated s-Mgm1)
  Kd: 9 ± 3 µM

B1: Chaetomium thermophilum Mgm1 (amino acids 219-912), truncated s-Mgm1 isoform (domain or fragment, UniProt G0SGC7 219-912, looked up)
chain: T1 sequence (G0SGC7 219-912)
AUC
  Kd: 1000 nM

B2: Seleno-methionine substituted Chaetomium thermophilum Mgm1 (amino acids 219-912) (domain or fragment, UniProt G0SGC7 219-912, looked up)
chain: T1 sequence (G0SGC7 219-912)
modifications: seleno-methionine substituted for methionine
Crystal structure
  binding result: binds
